Experimental data as given in patent US20230192830A1 (VOYAGER THERAPEUTICS, published 2023).
Substitutions are numbered along the chain they refer to.

Tests used:
[1] = biological target: T1, enriched paired helical filament tau protein (ePHF) (human, UniProt P10636 2-758); assay: direct ELISA, ePHF coated
T1 construct: Sarkosyl-insoluble filaments isolated from human frontal cortical tissue; aggregated, isoform mix and phosphorylated residues not specified; also called sarkosyl insoluble tau

[2] = biological target: iPHF (UniProt P10636-8 1-441); assay: Octet, epitope binning of Example 4
[3] = biological target: wild type tau (UniProt P10636-8 1-441, limits assumed); assay: direct ELISA, wild type tau coated
[4] = biological target: T1, enriched paired helical filament tau …; assay: cell-based or functional assay
[5] = biological target: T1, enriched paired helical filament tau …; assay: follow up analysis, method not stated

T1 sequence (P10636 other isoform, or with tags, fused parts or gaps limits assumed): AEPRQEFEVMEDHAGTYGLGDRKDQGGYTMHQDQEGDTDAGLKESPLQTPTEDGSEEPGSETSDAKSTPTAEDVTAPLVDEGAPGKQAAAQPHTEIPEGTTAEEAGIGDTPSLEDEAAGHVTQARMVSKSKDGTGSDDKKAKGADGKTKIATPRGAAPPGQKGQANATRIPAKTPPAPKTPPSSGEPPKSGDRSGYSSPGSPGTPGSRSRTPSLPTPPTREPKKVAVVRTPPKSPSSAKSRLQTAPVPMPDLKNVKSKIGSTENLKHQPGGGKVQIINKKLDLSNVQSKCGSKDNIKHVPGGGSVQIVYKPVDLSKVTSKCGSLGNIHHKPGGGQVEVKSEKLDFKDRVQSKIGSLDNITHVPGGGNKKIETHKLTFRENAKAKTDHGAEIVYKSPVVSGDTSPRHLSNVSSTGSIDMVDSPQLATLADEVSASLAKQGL
Sequence of wild type tau (P10636 other isoform, or with tags, fused parts or gaps limits assumed): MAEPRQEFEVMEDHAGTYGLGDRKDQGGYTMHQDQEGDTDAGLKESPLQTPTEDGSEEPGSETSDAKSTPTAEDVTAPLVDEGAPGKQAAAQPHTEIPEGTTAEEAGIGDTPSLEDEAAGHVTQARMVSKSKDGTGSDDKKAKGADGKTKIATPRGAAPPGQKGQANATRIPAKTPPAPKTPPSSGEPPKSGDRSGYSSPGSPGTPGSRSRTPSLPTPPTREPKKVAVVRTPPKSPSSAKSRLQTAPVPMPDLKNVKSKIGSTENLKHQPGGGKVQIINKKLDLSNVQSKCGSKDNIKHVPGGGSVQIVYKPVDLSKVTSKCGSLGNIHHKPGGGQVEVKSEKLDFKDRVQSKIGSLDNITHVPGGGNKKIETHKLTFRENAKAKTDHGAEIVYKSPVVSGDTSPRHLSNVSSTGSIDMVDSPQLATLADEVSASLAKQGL

B1: V00018 (antibody, mouse IgG1, V domains shown)
VH: QVQLQQPGADLVRPGSSVKLSCKASGYTFTRSWMHWVKQRPIEGLEWIGNIDPSDSEAHYNQKFKDKATLTVDKFSNTAYMQLSSLTSEDSAVYYCARWDDFYVAYWGQGTLVTVSA
VL: DIVLTQSPASLAVSLGQRATISCRASKSVSTSGYSYIHWYQQKPGQPPKLLIYLASNLESGVPARFSGSGSGTDFTLNIHPVEEEDAATYYCQHSRELPWTFGGGTKLEIK
Q: Which EC50 [1] does the source give for B1 here?
A: 718 pM

B2: V00014 (antibody, mouse IgG1, V domains shown)
VH: QAYLQQSGAELVRPGASVKMSCKASGYTFTSYNMHWVKQTPRQGLEWIGAIYPGNGDTSYNQKFKGKATLTVDKSSSTAYMQLSSLTSEDSAVYFCARGGMDYWGQGTSVTVSS
VL: DVVMTQTPLSLPVSLGDQASISCRSSQSLVHSNGNTYLHWYLQKPGQSPKLLIYKVSNRFSGVPDRFSGSGSGTDFTLKISRVEAEDLGVYFCSQSTHVPYTFGGGTKLEIK
Q: Does B2 bind [2]?
A: no binding

Q: Does B2 bind [3]?
A: no binding

B3: V0035 (antibody, mouse IgG1, V domains shown)
VH: EAQLQQSGAELVRPGSSVKMSCKTSGYTFTSYGINWVKQRPGQGLEWIGYIYIRNGNTAYNEKFKGKATVTSDTSSSTVYMQLSSLTSEDSAIYFCAGTGTSFTYWGQGTLVTVSA
VL: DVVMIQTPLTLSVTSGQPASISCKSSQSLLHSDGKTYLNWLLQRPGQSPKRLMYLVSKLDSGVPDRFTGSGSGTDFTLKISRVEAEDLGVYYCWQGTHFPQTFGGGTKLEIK
Q: B3 was tested. Which EC50 [1] did it give?
A: 315 pM

B4: V0034 (antibody, mouse IgG1, V domains shown)
VH: B3 VH with A2V, I48V, N55D, T104A
VL: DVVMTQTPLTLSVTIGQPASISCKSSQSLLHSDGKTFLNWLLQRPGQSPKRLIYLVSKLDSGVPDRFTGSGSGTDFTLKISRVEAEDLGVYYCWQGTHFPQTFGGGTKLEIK
Q: Which EC50 [1] does the source give for B4 here?
A: 351 pM

B5: V0023 (antibody, mouse IgG1, V domains shown)
VH: QVQLQQPGTELVKPGASVKLSCKASGYTFTIFWMHWVKQRPGHGLEWIGKINPNNGGGDYNEKFKSKATLTVDKSSTTAYLQLSSLTSEDSAVYYCARGTGTGAMDYWGQGTSVTVSS
VL: DVVMTQTPLSLPVSLGDHASISCRSSQSLVHSNGITHLYWYLQRPGQTPKLLIYRVSNRFSGVPDRFSGSGSGTDFTLKISSVEAEDLGVYFCFQGTHVPRTFGGGTKLEIE
Q: Which results are given for B5?
A: Average IC50 (nM), tau aggregation inhibition, immunodepletion assay with tau RD Biosensor cells [4]: 16.5 nM; selectivity for ePHF over wild type tau [5]: > 100 fold; EC50 [1]: 110 pM

B6: V0025 (antibody, mouse IgG1, V domains shown)
VH: QVQLQQPGTELVKPGASVKLSCKASGFTFTRFWMHWVKQRPGQGLEWIGNINPNNGETNYNEKFKIKAALTVDKSSTTAYMQLSSLTSEDSAVYSCARGTGTGAMDYWGQGTSVTVSS
VL: B2 VL with N33T, H39Y, K55R, N58T, S81N, S94F, S96G, Y101R
Q: With B6 as the binder, how does the EC50 [1] read?
A: 98 pM

B7: V0024 (antibody, mouse IgG1, V domains shown)
VH: B5 VH with I31R, H43Q, K50N, G58T, Y60N, K63R, K74R, T77S, L81M
VL: B5 VL with H18Q, I35N, R44K, T48S, N58S, S82R, E112K
Q: For B7, which “Average IC50 (nM), tau aggregation inhibition, immunodepletion assay with tau RD Biosensor cells” value [4] is on record?
A: 18.6 nM

B8: V0022 (antibody, mouse IgG1, V domains shown)
VH: QVQLQQPGTELVKPGSSVNLSCKASGFTFTRYWMHWVKERPGHGLEWIGNINPNNGGTDFNEKFKNKATLTVHKSSTTVFIQLSSLTSEDSAVYYCARGTGTGAMDYWGQGTSVTVSS
VL: B5 VL with H18Q, S32N, H37Y, R44K, T48S, S68G, S82R, E112K
Q: B8 was tested. Which “Average IC50 (nM), tau aggregation inhibition, immunodepletion assay with tau RD Biosensor cells” value [4] did it give?
A: 18.2 nM

Q: What about the “selectivity for ePHF over wild type tau” value [5] of the same binder?
A: > 100 fold

Q: What about the EC50 [1] of the same binder?
A: 70 pM

B9: V2004 (antibody, mouse IgG1, V domains shown)
VH: QVQLQQSGAELARPGASVKLSCKSSGYIFSSYWMQWVKQRPGQGLEWIGAIYPGDGDTRYTPKFKGKATLTADKSSSTAYMQLTSLASEDSAVYYCAKGYSQSFDYWGQGTTLTVSS
VL: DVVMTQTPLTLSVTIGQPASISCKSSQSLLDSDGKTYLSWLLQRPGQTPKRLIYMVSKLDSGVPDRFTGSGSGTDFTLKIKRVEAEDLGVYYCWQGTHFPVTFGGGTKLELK
Q: Does B9 bind [3]?
A: no binding
